Test results published in patent publication US12060408B2, “Screening assays, modulators and modulation of activation of Receptor for Advanced Glycation End-products (RAGE)” (Monash University, priority 2017, dated 2024).
“Also recorded” adds a separate entry of the source. Ends that are not written are not given here.

Tests used:
CCR2 = biological target: T1, CCR2 (Homo sapiens, UniProt P41597); test: Receptor-HIT BRET, β-arrestin2/Venus with RAGE/Rluc8 and CCR2; format: cell-based
T1 construct: expressed in transfected cells; host or cells: HEK293FT, transient
Source text: (§1) Bioluminescence Resonance Energy Transfer (BRET)
(§2) BRET is an established technology for studying protein-protein proximity in live cells, particularly involving GPCRs (Pfleger and Eidne, 2006). One protein of interest was linked to a bioluminescent donor enzyme, Rluc8, a variant of Renilla luciferase, and a second linked to an acceptor fluorophore, Venus, a variant of green fluorescent protein. If in close proximity (<10 nm), energy resulting from the rapid oxidation of a cell-permeable coelenterazine substrate by the donor can transfer to the acceptor, which in turn fluoresces at a longer characteristic wavelength.
(§3) Plasmids were transiently co-expressed in human embryonic kidney (HEK) 293FT cells and BRET measurements taken at 37° C. using a POLARstar Omega or LUMIstar plate reader (BMG Labtech, Mornington, Victoria, Australia) with 460-490 nm (‘donor emission’) and 520-550 nm (‘acceptor emission’) filters, or a VICTOR Light plate reader (Perkin Elmer, Glen Waverley, Victoria, Australia) with 400-475 nm (‘donor emission’) and 520-540 nm (‘acceptor emission’) filters, or a CLARIOstar plate reader (BMG Labtech, Mornington, Victoria, Australia) with 420-480 nm (‘donor emission’) and 520-620 nm (‘acceptor emission’) filters. […]
(§4) For BRET kinetic assays, the final pre-treatment reading is presented at the zero time point (time of ligand/vehicle addition). […]

orexin receptor 1 (OxR1) = biological target: T2, orexin receptor 1 (OxR1) (Homo sapiens, UniProt O43613); test: Receptor-HIT BRET, β-arrestin2/Venus with RAGE/Rluc8 and orexin receptor 1; format: cell-based
T2 construct: expressed in transfected cells; host or cells: HEK293FT, transient
Source text: as §1, §2, §3, §4

[1] = system: RAGE ligand-independent activation of RAGE by activated AT1R; test: Ang II-induced NFκB activation (p65 gene expression, SEAP reporter) in AT1R-CHO cells with RAGE constructs; format: cell-based, human; conditions: summary statement, cell system not given
Method: (§5) Generation of Transgenic Chinese Hamster Ovary Cells
(§6) 100 ng of AT1R-Rluc8 construct was transfected into CHO cells using Lipofectamine 2000 (Thermo). Stable transfectants were selected using G418. AT1R—CHO were then transiently transfected with RAGE constructs using Lipofectamine 2000 (Invitrogen) and incubated for 16 h. The Homo sapiens AGER transcript variant 1 coding sequence (NM_001136) was synthesised and cloned between the NheI and XbaI sites of pCIneo (Promega) to generate the vector pCIneo-RAGE. This plasmid was then used to generate a library of mutant AGER clones (NP_001127). Primers 1-RAGE-SP-5′ and mCherry-XhoI-NotI-3′ were used to amplify the coding sequence of mCherry from the vector pmCherry-C1. The resultant PCR product was then used as template for a second PCR using primers 2-RAGE-SP-5′ and mCherry-XhoI-NotI-3′. The PCR product generated was digested with NheI and NotI and inserted between the NheI and NotI sites of pCIneo to generate pCIneo-SP-mCherry. The sequence of the insert was confirmed by DNA sequencing (Micromon, Monash University). […]
(§7) Cellular Expression of Pro-Inflammatory Markers and Mediators by Quantitative Real-Time PCR
(§8) After 2 hours of exposure to Ang II (1 μM) or the RAGE ligand, S100A8/A9 (5 ng/ml) cells were placed in Trizol, mRNA extracted and cDNA synthesized. Changes in the gene expression of the NFκB subunit, p65 (RelA) or NFκB-activated target genes (e.g ICAM-1, VCAM-1) were estimated by quantitative real-time RT-PCR, performed using the TaqMan system based on real-time detection of accumulated fluorescence (ABI Prism 7700, Perkin-Elmer Inc, PE Biosystems, Foster City, CA, USA). Gene expression was normalized to 18S mRNA and reported as fold change compared to the level of expression in untreated control mice/cells, which were given an arbitrary value of 1.
Oligopeptides (Cherry-TAT (control), mCherry-TAT-RAGE362-404 and mCherry-S391A-TAT-RAGE362-404 were generated by transformation of the Escherichia coli strain ClearColi BL21 (DE3; Lucigen). A single transformed colony was inoculated into 50 ml 2YT medium containing 100 μg/ml ampicillin and the culture was grown overnight at 37° C. with shaking at 250 rev/min. 10 ml overnight culture was used to inoculate 1 litre 2YT medium containing 100 μg/ml ampicillin and the culture was grown at 37° C. with shaking at 250 rev/min. When the cultures reached an OD600 of 0.8, the temperature was shifted to 15° C. for 30 min after which protein expression was induced by the addition of 1 mM isopropyl β-D-1-thiogalacto-pyranoside (IPTG). Following the addition of IPTG the cultures were grown for ˜16 h at 15° C. with shaking at 250 rev/min. Cells were harvested by centrifugation (3500 g, 4° C., 20 min) and resuspended in ice-cold lysis buffer (50 mM Tris pH 7.4, 300 mM NaCl, 10 mM imidazole and 5 mM beta-mercaptoethanol). The resuspended cells were sonicated and insoluble material was pelleted by centrifugation (13 000 g, 4° C., 30 min). The supernatant was filtered (0.2 μm) and applied onto a gravity-flow column with a 1 ml Ni-NTA Agarose resin bed volume (Qiagen) pre-equilibrated with lysis buffer. After the supernatant was passed over the resin, the column was washed with 100 ml of wash buffer (20 mM imidazole, 50 mM Tris pH 7.4, 150 mM NaCl, 5 mM beta-mercaptoethanol). His-tagged TAT-mCherry and TAT-mCherry-RAGE peptides were eluted from the resin using elution buffer (250 mM imidazole, 50 mM Tris pH 7.4, 150 mM NaCl, 5 mM beta-mercaptoethanol). […]

murine SVEC = test: Induction of ICAM-1 by Ang II in murine SVEC transfected with RAGE constructs (RT-PCR); format: cell-based, mouse; conditions: transfected construct (FIG. 12)
Source text: FIG. 12A. The effect of transfection of murine SVEC with RAGE or RAGE mutants on the induction of ICAM-1 by Ang II compared to vector alone (pc-Neo) as a control, as measured by RT-PCR. Data are mean±SEM; n=6-8 per group. * vs untreated control, # vs neo+Ang II, p<0.05.
FIG. 12B. The effect of transfection with truncated RAGE mutants on the induction of ICAM-1 by Ang II in murine SVEC to identify the smallest fragments with inhibitory activity. Data are mean±SEM; n=6-8 per group, * vs no treatment control, p<0.05.
FIG. 12D. The effect of transfection with single site-specific alanine or lysine mutants of RAGE370-390 on the induction of ICAM-1 by Ang II in murine SVEC. Data are mean±SEM; n=6-8 per group, * vs no treatment control, p<0.05.
as §7
After 2 hours of exposure to Ang II (1 μM) or the RAGE ligand, S100A8/A9 (5 ng/ml) cells were placed in Trizol, mRNA extracted and cDNA synthesized. Changes in the gene expression of the NFκB subunit, p65 (RelA) or NFκB-activated target genes (e.g ICAM-1, VCAM-1) were estimated by quantitative real-time RT-PCR, performed using the TaqMan system based on real-time detection of accumulated fluorescence (ABI Prism 7700, Perkin-Elmer Inc, PE Biosystems, Foster City, CA, USA). […]

[2] = system: RAGE ligand-dependent activation of RAGE; test: S100A8/A9-induced NFκB activation (p65 gene expression) in CHO cells expressing RAGE constructs; format: cell-based, human; conditions: summary statement, cell system not given
Method: as §5, §6, §7, §8
To measure the induction of NFκB activity by 1 μM Ang II, or 5 ng/ml of the RAGE-ligand S100A8/A9 as a signalling control, AT1R—CHO cells were transfected with 0.4 μg of plasmids encoding NFκB-SEAP or β-galactosidase (β-Gal) using Lipofectamine 2000 (Invitrogen) as per manufacturer's instructions. After 24 hours, cells transfected with each plasmid combination were then treated with Ang II (1 μM) or left untreated and incubated for 4 hours before cell supernatants and cell lysates were collected. Cell supernatants were analysed using a chemiluminescent SEAP reporter gene assay (Roche Applied Science) to detect SEAP production after treatment. To control for transfection efficiency, cell lysates were assayed for β-Gal using a commercially available kit (Promega).

TRH receptor 1 (TRHR1) = test: Receptor-HIT BRET, β-arrestin2/Venus with RAGE/Rluc8 and TRH receptor 1; format: cell-based
Source text: as §1, §2, §3, §4

RAGE [3] = biological target: T3, RAGE (Homo sapiens, UniProt Q15109); test: S100A8/A9-induced pro-inflammatory signalling in RAGE-AT1R-CHO cells; format: cell-based; conditions: 1 hour pre-treatment, 1 μg/mL, S100A8/A9 5 ng/ml, FIG. 6A
T3 construct: RAGE-AT1R—CHO cells expressing both full length RAGE and AT1R; expressed in transfected cells
Method: (§9) Additional experiments were conducted in the presence and absence of a 1 hour pre-treatment with a neutralizing antibody to RAGE (RAGEab; R&D systems; 1 μg/mL) or soluble RAGE22-331 (sRAGE; 1 μg/mL) prior to exposure to 1 μM Ang II or 5 ng/ml of the RAGE ligand, S100A8/A9.
(§10) To confirm the applicability of inhibition strategies to human tissues, additional experiments were undertaken in primary aortic endothelial cells from humans (Lonza). HAECs were grown in EGM-2 media. In each case cells were treated with mCherry-TAT (control), TAT-mCherry-RAGE362-404 (wild type), or TAT-mCherry-S391A-RAGE362-404 at a dose of 0.4 ng/ml for 30 min prior to treatment with either Ang II (1 μM), or S100A8/A9 (2 μg/ml; R&D systems) for 2h.

RAGE [4] = biological target: T4, RAGE (Mus musculus, UniProt Q62151); test: Ang II-induced pro-inflammatory signalling in PMAEC; format: cell-based; conditions: 1 hour pre-treatment, 1 μg/mL, 1 μM Ang II, FIG. 6B
T4 construct: in murine SVEC that are endogenously replete in RAGE expression; host or cells: Svec4-10 mouse endothelial cells
Method: as §9
(§11) Additional experiments were conducted in the presence and absence of a 1 hour pre-treatment with a pseudo-substrate for PKCζ (iPKCζ, 5 μM, Tocris).
as §10

RAGE [5] = biological target: T3, RAGE; test: Ang II-induced pro-inflammatory signalling (p65-NFκB expression) in AT1R-CHO / RAGE-AT1R-CHO cells; format: cell-based; conditions: RAGE-AT1R-CHO cells; 1 hour pre-treatment, 1 μg/mL; 1 μM Ang II; FIG. 6A
RAGE [6] = biological target: T4, RAGE; test: S100A8/A9-induced pro-inflammatory signalling in PMAEC; format: cell-based; conditions: 1 hour pre-treatment, 1 μg/mL, S100A8/A9 5 ng/ml, FIG. 6C
Method: as §9, §11, §10

CCR5 = biological target: T5, CCR5 (Homo sapiens, UniProt P51681); test: Receptor-HIT BRET, β-arrestin2/Venus with RAGE/Rluc8 and CCR5; format: cell-based
T5 construct: expressed in transfected cells; host or cells: HEK293FT, transient
Source text: as §1, §2, §3, §4

T5 sequence (P51681 whole entry): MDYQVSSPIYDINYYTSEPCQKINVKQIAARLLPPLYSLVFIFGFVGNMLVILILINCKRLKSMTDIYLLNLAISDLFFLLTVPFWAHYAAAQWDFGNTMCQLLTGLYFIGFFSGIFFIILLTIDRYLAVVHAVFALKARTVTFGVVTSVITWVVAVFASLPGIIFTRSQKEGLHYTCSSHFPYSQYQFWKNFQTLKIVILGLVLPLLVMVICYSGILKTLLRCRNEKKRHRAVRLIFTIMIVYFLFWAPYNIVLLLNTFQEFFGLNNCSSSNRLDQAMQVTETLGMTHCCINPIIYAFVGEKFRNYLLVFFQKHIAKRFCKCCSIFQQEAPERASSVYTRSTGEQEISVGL
T5 sequence (P32121 whole entry partner): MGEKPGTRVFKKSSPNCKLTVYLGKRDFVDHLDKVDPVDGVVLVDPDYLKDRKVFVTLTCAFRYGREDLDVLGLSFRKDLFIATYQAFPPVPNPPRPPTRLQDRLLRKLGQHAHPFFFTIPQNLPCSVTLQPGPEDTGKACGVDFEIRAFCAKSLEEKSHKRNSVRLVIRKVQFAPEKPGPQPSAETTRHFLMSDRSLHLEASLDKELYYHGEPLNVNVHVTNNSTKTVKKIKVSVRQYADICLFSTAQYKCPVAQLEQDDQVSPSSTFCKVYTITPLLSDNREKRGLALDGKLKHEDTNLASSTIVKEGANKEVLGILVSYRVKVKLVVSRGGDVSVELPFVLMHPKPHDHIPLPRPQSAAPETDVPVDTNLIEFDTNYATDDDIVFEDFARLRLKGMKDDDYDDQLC
T2 sequence (O43613 whole entry): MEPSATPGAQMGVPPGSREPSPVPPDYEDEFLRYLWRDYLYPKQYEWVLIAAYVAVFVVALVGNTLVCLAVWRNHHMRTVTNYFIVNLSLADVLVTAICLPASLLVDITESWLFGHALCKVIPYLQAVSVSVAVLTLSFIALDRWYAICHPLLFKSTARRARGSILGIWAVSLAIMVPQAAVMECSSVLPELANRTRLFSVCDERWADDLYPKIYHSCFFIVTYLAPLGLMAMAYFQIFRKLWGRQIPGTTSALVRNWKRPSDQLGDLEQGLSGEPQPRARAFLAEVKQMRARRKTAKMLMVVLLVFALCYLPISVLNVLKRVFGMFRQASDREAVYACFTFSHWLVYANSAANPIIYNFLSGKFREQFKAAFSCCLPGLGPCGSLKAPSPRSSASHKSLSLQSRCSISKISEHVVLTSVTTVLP
T2 sequence (P32121 whole entry partner): as the sequence (P32121 whole entry partner) above
T1 sequence (P41597 whole entry): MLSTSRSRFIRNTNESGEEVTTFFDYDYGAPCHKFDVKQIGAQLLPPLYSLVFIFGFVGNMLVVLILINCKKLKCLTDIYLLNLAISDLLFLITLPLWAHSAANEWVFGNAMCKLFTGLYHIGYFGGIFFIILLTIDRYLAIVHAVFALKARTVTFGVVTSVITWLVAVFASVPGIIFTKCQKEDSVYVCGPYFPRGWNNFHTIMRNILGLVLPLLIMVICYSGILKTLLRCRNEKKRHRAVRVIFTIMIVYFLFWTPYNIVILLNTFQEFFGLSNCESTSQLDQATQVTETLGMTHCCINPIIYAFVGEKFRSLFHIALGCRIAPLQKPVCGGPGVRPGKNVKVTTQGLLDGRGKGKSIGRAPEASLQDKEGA
T1 sequence (P32121 whole entry partner): as the sequence (P32121 whole entry partner) above
T3 sequence (Q15109 23-404): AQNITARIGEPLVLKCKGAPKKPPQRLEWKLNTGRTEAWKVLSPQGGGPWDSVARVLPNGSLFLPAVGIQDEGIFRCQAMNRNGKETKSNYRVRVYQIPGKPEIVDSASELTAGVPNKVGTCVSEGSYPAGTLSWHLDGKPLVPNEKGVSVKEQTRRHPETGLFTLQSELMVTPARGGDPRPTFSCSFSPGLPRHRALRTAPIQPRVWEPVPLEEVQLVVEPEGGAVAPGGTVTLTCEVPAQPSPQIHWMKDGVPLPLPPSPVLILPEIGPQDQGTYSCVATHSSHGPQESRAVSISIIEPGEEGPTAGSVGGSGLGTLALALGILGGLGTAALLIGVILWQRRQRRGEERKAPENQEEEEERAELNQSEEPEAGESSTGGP
T4 sequence (Q62151 23-402): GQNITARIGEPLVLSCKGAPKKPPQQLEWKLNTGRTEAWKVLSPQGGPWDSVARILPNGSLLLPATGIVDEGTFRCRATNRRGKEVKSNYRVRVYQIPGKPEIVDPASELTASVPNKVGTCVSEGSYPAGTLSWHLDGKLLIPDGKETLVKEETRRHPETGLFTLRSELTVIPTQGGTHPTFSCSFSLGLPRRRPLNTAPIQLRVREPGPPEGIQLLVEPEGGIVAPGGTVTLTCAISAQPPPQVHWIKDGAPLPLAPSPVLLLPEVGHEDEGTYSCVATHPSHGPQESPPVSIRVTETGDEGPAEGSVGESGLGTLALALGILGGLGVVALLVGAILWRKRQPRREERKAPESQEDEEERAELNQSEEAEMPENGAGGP

Molecule: CCL2: monocyte chemotactic protein-1, cognate ligand of CCR2
- recruitment of βarrestin2/Venus to CCR2/Rluc8 (CCR2; control): recruitment
- recruitment of β-arrestin2/Venus proximal to RAGE/Rluc8 (CCR2; in the presence of CCR2): recruitment

Molecule: Orexin A (QPLPDCCRQKTCSCRLYELLHGAGNHAAGILTL; not fully specified (residue 1, C-terminus, bridges); cysteine pairing not given here; UniProt O43612 34-66, looked up) [OxA]
- recruitment of βarrestin2/Venus to OxR1/Rluc8 (orexin receptor 1 (OxR1); control): recruitment
- recruitment of β-arrestin2/Venus proximal to RAGE/Rluc8 (orexin receptor 1 (OxR1); in the presence of OxR1): recruitment

Molecule: Q379EEEEERAELNQ390 (QEEEEERAELNQ; listed as Homo sapiens) [RAGE379-390]
- inhibition of RAGE ligand-independent activation of wild-type RAGE by activated AT1R [1]: inhibiting
- inhibition of Ang II-induced ICAM-1 (acting on wild type RAGE) (murine SVEC): does not result in a loss of function
- inhibition of RAGE ligand-dependent activation of wild-type RAGE (S100A8/A9) [2]: inhibiting

Molecule: Thyrotrophin-releasing hormone [TRH]
- recruitment of βarrestin2/Venus to TRHR1/Rluc8 (TRH receptor 1 (TRHR1); control): recruitment
- recruitment of β-arrestin2/Venus proximal to RAGE/Rluc8 (TRH receptor 1 (TRHR1); in the presence of TRHR1): weak recruitment

Molecule: sRAGE22-331: soluble RAGE decoy with ligand-binding affinity; extracellular ligand-binding V-C1-C2 domains of RAGE
- RAGE ligand-dependent induction of pro-inflammatory signalling by S100A8/A9 (RAGE [3]): block
- Ang II-AT1R-dependent induction of pro-inflammatory signalling (RAGE [4]): does not attenuate
- RAGE ligand-independent induction of pro-inflammatory signalling by Ang II (RAGE [5]): do not affect
- pro-inflammatory signalling induced by the RAGE ligand S100A8/A9 (RAGE [6]): able to attenuate

B1: CCL4: chemokine ligand used to activate CCR5 (protein)
chain: APMGSDPPTACCFSYTARKLPRNFVVDYYETSSLCSQPAVVFQTKRSKQVCADPSESWVQEYVYDLELN
- recruitment of βarrestin2/Venus to CCR5/Rluc8 (CCR5; control): recruitment
- recruitment of β-arrestin2/Venus proximal to RAGE/Rluc8 (CCR5; in the presence of CCR5): particularly weak recruitment; also recorded: Lack of
